Two molecules from CN115710309A (INST PASTEUR SHANGHAI CAS, dated 2023) can be followed below.

What all share (test): cell-based or functional assay
Experiment [1] has as its target SARS-CoV-2 B.1.617.1突变株S蛋白 (假病毒) (SARS-CoV-2, UniProt P0DTC2 14-1273).
For experiment [2], the target named is SARS-CoV-2 B.1.617.2突变株S蛋白 (假病毒) (SARS-CoV-2, UniProt P0DTC2 14-1273).
Experiment [3] has as its target SARS-CoV-2 B.1.351突变株S蛋白 (假病毒) (SARS-CoV-2, UniProt P0DTC2 14-1273).

B1: 单抗2G3 (antibody)
heavy: QVQLQQPGAELVKPGASVKMSCKASGYTFTTYTIHWLRQTPGQGLEWIGAIYPGIGDTSYNQSFKGKATLTADKSSSTAYMQLSSLTSEDSAVYYCARDGNYAPFTYWGQGTLVTVSAAKTTPPSVYPLAPGSAAQTNSMVTLGCLVKGYFPEPVTVTWNSGSLSSGVHTFPAVLQSDLYTLSSSVTVPSSTWPSETVTCNVAHPASSTKVDKKIVPRDCGCKPCICTVPEVSSVFIFPPKPKDVLTITLTPKVTCVVVDISKDDPEVQFSWFVDDVEVHTAQTQPREEQFNSTFRSVSELPIMHQDWLNGKEFKCRVNSAAFPAPIEKTISKTKGRPKAPQVYTIPPPKEQMAKDKVSLTCMITDFFPEDITVEWQWNGQPAENYKNTQPIMDTDGSYFVYSKLNVQKSNWEAGNTFTCSVLHEGLHNHHTEKSLSHSPGK
light: DIVMSQSPSSLAVSVGEKVTMSCKSSQSLLYSNNQKNYLAWYQQKPGQSPKLLIYWTSTRESGVPDRFTGSGSGTDFTLTINSVKAEDLAVYYCQQYYRYPLTVGAGTKLELKRADAAPTVSIFPPSSEQLTSGGASVVCFLNNFYPKDINVKWKIDGSERQNGVLNSWTDQDSKDSTYSMSSTLTLTKDEYERHNSYTCEATHKTSTSPIVKSFNRNEC
As to B1, the “假病毒中和 IC50” value was 1 ng/mL in experiment [1], 84 ng/mL in experiment [2] and 4 ng/mL in experiment [3].

B2: 单抗8D3 (antibody, V domains shown)
VH: EVQLQQSGPELVKPGASVKISCKTSGYTFTEYTMYWVKQSHGKSLEWIGGINPNIGDTSYNQNFKGKATLTVDRSSSTAYMELRSLTSEDSAVYYCARDGYPYYYALDHWGQGTSVTVSS
VL: DIVMTQSQKFMSTSVGDRVSVTCKASQNVGTNVAWYQQKPGQSPKALIYSTSYRYSGVPDRFTGSGSGTDFTLTISNVQSEDLAEYFCQQYNSYPYTFGGGTKLEIKR
Turning to B2, the figures for the “假病毒中和 IC50” value in experiment [1], in experiment [2] and in experiment [3] were 2 ng/mL, 8 ng/mL and 6 ng/mL, respectively.
